Biological target: T1, SARS-CoV-2 S protein extracellular domain (S-ECD), prefusion-stabilised trimer (SARS-CoV-2, Wuhan-Hu-1 (wild type), UniProt P0DTC2, proline substitution at residue 986 | proline substitution at residue 987 | …)
T1 construct: also called trimeric SARS-CoV-2 S protein; S trimer
Test: cryo-EM structure
Conditions: both partners purified

B1: 7B8 Fab fragment (Fab, V domains shown)
VH: QVQLVESGGGVVQPGRSLRLSCAASGFIFSSYGMHWVRQAPGKGLEWVAVIWFDGSNKYYADSVKGRFTISRDNSKNTLYLQMNSLRAEDTAVYYCARETVSYGMDVWGQGTTVTVSS
VL: NIQMTQSPSAMSASVGDRVTITCRARQGISNYLAWFQQKPGKVPKHLIYAASSLLSGVPSRFSGSGSETEFTLTISSLQPEDFATYYCLQHNSYPYTFGQGTKLEIK
notes: also called Ab4
binding result: binds

Source: PMC8290868 (Cell Discovery, 2021)
